Where two headings read alike, the source gives them in different places.
What was measured:
hDMX (In-house, 40 kD) [1] = target: T1, hDMX (In-house, 40 kD) (human, UniProt O15151 1-120); test: FP competition
T1 chain: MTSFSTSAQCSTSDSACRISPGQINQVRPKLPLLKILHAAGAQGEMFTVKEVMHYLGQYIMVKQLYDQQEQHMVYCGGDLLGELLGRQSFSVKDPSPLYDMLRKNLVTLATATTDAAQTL

hDM2 (In-house, 41 kD) [2] = target: T2, hDM2 (In-house, 41 kD) (human, UniProt Q00987 1-125); test: FP competition
hDM2 (In-house, 41 kD) [3] = target: T2, hDM2 (In-house, 41 kD); test: FP competition; remark: listed apart in the source
hDMX (In-house, 40 kD) [4] = target: T1, hDMX (In-house, 40 kD); test: FP competition
SP-44 = test: Affinity selection MS
SP-5 = test: Affinity selection MS

B1: SP-604 (peptide)
chain: LTFAFYWAQLAA
modifications: not fully specified
IC50 (hDMX (In-house, 40 kD) [1]): 310 nM

B2: SP-698 (peptide)
chain: LTFAAYWSQLAA
modifications: not fully specified
IC50 (hDM2 (In-house, 41 kD) [2]): 82.2 nM
IC50 (hDMX (In-house, 40 kD) [1]): 157 nM

B3: SP-684 (peptide)
chain: ITFAFYWAQLAS
modifications: not fully specified
IC50 (hDM2 (In-house, 41 kD) [2]): 104 nM

B4: SP-508 (peptide)
chain: ETFAAYWAQLAS
modifications: not fully specified
IC50 (hDM2 (In-house, 41 kD) [3]): 22.8 nM
IC50 (hDMX (In-house, 40 kD) [4]): 88.8 nM

B5: SP-681 (peptide)
chain: LTFAAYWVQLAS
modifications: not fully specified
IC50 (hDM2 (In-house, 41 kD) [2]): 118 nM
IC50 (hDMX (In-house, 40 kD) [1]): 395 nM

B6: SP-696 (peptide)
chain: WTFALYWSQLAS
modifications: not fully specified
IC50 (hDMX (In-house, 40 kD) [1]): 379 nM

B7: GST-hDMX (other)
chain: MTSFSTSAQCSTSDSACRISPGQINQVRPKLPLLKILHAAGAQGEMFTVKEVMHYLGQYIMVKQLYDQQEQHMVYCGGDLLGELLGRQSFSVKDPSPLYDMLRKNLVTLATATTDAAQTL
Kd (SP-44): 180 nM
Kd (SP-5): 90 nM

B8: SP-671 (peptide)
chain: LTFAEYWAQLAA
modifications: not fully specified
IC50 (hDM2 (In-house, 41 kD) [2]): 63.6 nM

B9: SP-623 (peptide)
chain: LTFAVYWAQLAA
modifications: not fully specified
IC50 (hDM2 (In-house, 41 kD) [2]): 68.3 nM

B10: SP-673 (peptide)
chain: LTFAAYWAALAS
modifications: not fully specified
IC50 (hDM2 (In-house, 41 kD) [2]): 137 nM

B11: SP-709 (peptide)
chain: ETFAAYWAQLAA
modifications: not fully specified
IC50 (hDM2 (In-house, 41 kD) [2]): 103 nM

B12: GST-hDM2 (other)
chain: MCNTNMSVPTDGAVTTSQIPASEQETLVRPKPLLLKLLKSVGAQKDTYTMKEVLFYLGQYIMTKRLYDEKQQHIVYCSNDLLGDLFGVPSFSVKEHRKIYTMIYRNLVVVNQQESSDSGTSVSEN
Kd (SP-44): 25 nM
Kd (SP-5): 25 nM

B13: SP-586 (peptide)
chain: LTFAAYWAQFAS
modifications: not fully specified
IC50 (hDMX (In-house, 40 kD) [1]): 673 nM

— US8859723 (dated 2014)
